Molecular target: the molecule itself
Experiment: SEC

B1: Ca^2+-binding mutant FCaBP^E151Q/E188Q, recombinant (natural protein)
chain: MGACGSKGSTSDKGLASDKDGKKAKDRKEAWERIRQAIPREKTAEAKQRRIELFKKFDKNETGKLCYDEVHSGCLEVLKLDEFTPRVRDITKRAFDKARALGSKLENKGSEDFVEFLEFRLMLCYIYDFFELTVMFDEIDASGNMLVDEEQLKRAVPKLEAWGAKVEDPAALFKELDKNGTGSVTFDQFAAWASAVKLDADGDPDNVPESA
- stoichiometry N: 2

From article PMC4532613 (Molecular and biochemical parasitology, 2015)
